This is an account of results in publication PMC4228062.

This assay deals with recombinant galectin-7 R74S (human). The assay can be described thus: native gel or EMSA; recombinant gal-7 (wild type or R74S) on a native gel, detected by immunoblot; monomeric and dimeric forms. (In general: Mobility shift assays separate free from complexed probe on a gel.)

With “recombinant galectin-7 R74S (natural protein)”, the stoichiometry N is 2.

Broadly, the stoichiometry N is the number of molecules, sites or subunits per partner or assembly.
